Test results as given in IntAct's records for PubMed 25910212.

B1: Carbonic anhydrase-related protein (Homo sapiens), P35219 (parent)
chain: MADLSFIEDTVAFPEKEEDEEEEEEGVEWGYEEGVEWGLVFPDANGEYQSPINLNSREARYDPSLLDVRLSPNYVVCRDCEVTNDGHTIQVILKSKSVLSGGPLPQGHEFELYEVRFHWGRENQRGSEHTVNFKAFPMELHLIHWNSTLFGSIDEAVGKPHGIAIIALFVQIGKEHVGLKAVTEILQDIQYKGKSKTIPCFNPNTLLPDPLLRDYWVYEGSLTIPPCSEGVTWILFRYPLTISQLQIEEFRRLRTHVKGAELVEGCDGILGDNFRPTQPLSDRVIRAAFQ
partner: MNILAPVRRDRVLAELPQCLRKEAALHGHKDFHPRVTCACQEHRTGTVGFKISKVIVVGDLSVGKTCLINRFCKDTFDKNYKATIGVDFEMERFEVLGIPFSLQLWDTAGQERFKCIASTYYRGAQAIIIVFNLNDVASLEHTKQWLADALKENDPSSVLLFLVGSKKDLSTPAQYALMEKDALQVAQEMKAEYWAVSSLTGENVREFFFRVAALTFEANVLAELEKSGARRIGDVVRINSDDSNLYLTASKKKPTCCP
B2: U4/U6 small nuclear ribonucleoprotein Prp31 (Homo sapiens), Q8WWY3 (parent)
chain: MSLADELLADLEEAAEEEEGGSYGEEEEEPAIEDVQEETQLDLSGDSVKTIAKLWDSKMFAEIMMKIEEYISKQAKASEVMGPVEAAPEYRVIVDANNLTVEIENELNIIHKFIRDKYSKRFPELESLVPNALDYIRTVKELGNSLDKCKNNENLQQILTNATIMVVSVTASTTQGQQLSEEELERLEEACDMALELNASKHRIYEYVESRMSFIAPNLSIIIGASTAAKIMGVAGGLTNLSKMPACNIMLLGAQRKTLSGFSSTSVLPHTGYIYHSDIVQSLPPDLRRKAARLVAAKCTLAARVDSFHESTEGKVGYELKDEIERKFDKWQEPPPVKQVKPLPAPLDGQRKKRGGRRYRKMKERLGLTEIRKQANRMSFGEIEEDAYQEDLGFSLGHLGKSGSGRVRQTQVNEATKARISKTLQRTLQKQSVVYGGKSTIRDRSSGTASSVAFTPLQGLEIVNPQAAEKKVAEANQKYFSSMAEFLKVKGEKSGLMST
partner: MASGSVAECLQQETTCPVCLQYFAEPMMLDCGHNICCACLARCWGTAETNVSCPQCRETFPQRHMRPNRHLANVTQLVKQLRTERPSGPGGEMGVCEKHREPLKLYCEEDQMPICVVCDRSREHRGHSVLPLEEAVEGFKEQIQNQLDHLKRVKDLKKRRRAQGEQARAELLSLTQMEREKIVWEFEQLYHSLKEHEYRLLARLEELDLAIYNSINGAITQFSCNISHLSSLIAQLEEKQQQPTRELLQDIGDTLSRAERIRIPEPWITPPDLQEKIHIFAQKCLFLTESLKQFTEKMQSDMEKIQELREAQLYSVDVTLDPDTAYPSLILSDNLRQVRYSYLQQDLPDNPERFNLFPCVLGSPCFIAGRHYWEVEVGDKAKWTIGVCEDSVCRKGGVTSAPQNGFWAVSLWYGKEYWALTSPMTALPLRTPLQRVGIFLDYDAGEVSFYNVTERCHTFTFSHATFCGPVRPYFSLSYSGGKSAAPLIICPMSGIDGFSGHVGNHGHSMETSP
B3: ATP synthase mitochondrial F1 complex assembly factor 2 (Homo sapiens), Q8N5M1 (parent)
chain: MWRSCLRLRDGGRRLLNRPAGGPSASMSPGPTIPSPARAYAPPTERKRFYQNVSITQGEGGFEINLDHRKLKTPQAKLFTVPSEALAIAVATEWDSQQDTIKYYTMHLTTLCNTSLDNPTQRNKDQLIRAAVKFLDTDTICYRVEEPETLVELQRNEWDPIIEWAEKRYGVEISSSTSIMGPSIPAKTREVLVSHLASYNTWALQGIEFVAAQLKSMVLTLGLIDLRLTVEQAVLLSRLEEEYQIQKWGNIEWAHDYELQELRARTAAGTLFIHLCSESTTVKHKLLKE
partner: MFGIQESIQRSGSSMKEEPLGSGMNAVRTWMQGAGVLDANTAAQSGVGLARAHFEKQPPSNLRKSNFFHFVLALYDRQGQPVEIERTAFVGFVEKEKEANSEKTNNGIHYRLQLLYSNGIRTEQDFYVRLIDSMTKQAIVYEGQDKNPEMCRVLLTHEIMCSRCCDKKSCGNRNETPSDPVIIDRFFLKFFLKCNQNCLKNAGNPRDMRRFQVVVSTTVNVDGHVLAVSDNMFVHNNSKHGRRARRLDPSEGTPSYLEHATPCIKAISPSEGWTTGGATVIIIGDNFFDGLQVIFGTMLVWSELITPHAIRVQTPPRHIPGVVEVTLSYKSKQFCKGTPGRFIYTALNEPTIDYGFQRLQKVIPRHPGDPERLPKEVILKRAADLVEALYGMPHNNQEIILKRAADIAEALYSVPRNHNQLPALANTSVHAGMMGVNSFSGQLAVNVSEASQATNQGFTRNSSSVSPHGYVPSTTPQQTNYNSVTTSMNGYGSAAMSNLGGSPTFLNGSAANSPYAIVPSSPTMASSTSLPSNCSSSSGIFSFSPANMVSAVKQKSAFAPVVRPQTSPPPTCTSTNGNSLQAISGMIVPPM
B4: U4/U6 small nuclear ribonucleoprotein Prp31 (Homo sapiens), Q8WWY3 (parent)
chain: B2 chain
partner: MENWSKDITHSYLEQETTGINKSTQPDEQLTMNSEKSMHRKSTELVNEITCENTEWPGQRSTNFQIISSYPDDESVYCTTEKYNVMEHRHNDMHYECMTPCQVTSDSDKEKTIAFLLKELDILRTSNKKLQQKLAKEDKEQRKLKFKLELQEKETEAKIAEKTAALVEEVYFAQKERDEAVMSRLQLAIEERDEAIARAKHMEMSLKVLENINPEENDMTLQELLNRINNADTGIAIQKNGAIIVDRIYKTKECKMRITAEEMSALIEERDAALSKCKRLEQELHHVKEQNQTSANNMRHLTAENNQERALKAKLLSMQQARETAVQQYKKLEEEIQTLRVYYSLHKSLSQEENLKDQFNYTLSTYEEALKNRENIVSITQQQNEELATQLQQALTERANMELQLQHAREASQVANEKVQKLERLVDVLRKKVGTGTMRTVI
B5: Bleomycin hydrolase (Homo sapiens), Q13867 (parent)
chain: MSSSGLNSEKVAALIQKLNSDPQFVLAQNVGTTHDLLDICLKRATVQRAQHVFQHAVPQEGKPITNQKSSGRCWIFSCLNVMRLPFMKKLNIEEFEFSQSYLFFWDKVERCYFFLSAFVDTAQRKEPEDGRLVQFLLMNPANDGGQWDMLVNIVEKYGVIPKKCFPESYTTEATRRMNDILNHKMREFCIRLRNLVHSGATKGEISATQDVMMEEIFRVVCICLGNPPETFTWEYRDKDKNYQKIGPITPLEFYREHVKPLFNMEDKICLVNDPRPQHKYNKLYTVEYLSNMVGGRKTLYNNQPIDFLKKMVAASIKDGEAVWFGCDVGKHFNSKLGLSDMNLYDHELVFGVSLKNMNKAERLTFGESLMTHAMTFTAVSEKDDQDGAFTKWRVENSWGEDHGHKGYLCMTDEWFSEYVYEVVVDRKHVPEEVLAVLEQEPIILPAWDPMGALAE
B6: 2'-5'-oligoadenylate synthase 1 (Homo sapiens), P00973-2 (parent)
chain: MMDLRNTPAKSLDKFIEDYLLPDTCFRMQINHAIDIICGFLKERCFRGSSYPVCVSKVVKGGSSGKGTTLRGRSDADLVVFLSPLTTFQDQLNRRGEFIQEIRRQLEACQRERAFSVKFEVQAPRWGNPRALSFVLSSLQLGEGVEFDVLPAFDALGQLTGGYKPNPQIYVKLIEECTDLQKEGEFSTCFTELQRDFLKQRPTKLKSLIRLVKHWYQNCKKKLGKLPPQYALELLTVYAWERGSMKTHFNTAQGFRTVLELVINYQQLCIYWTKYYDFKNPIIEKYLRRQLTKPRPVILDPADPTGNLGGGDPKGWRQLAQEAEAWLNYPCFKNWDGSPVSSWILLVRPPASSLPFIPAPLHEA
B7: U4/U6 small nuclear ribonucleoprotein Prp31 (Homo sapiens), Q8WWY3 (parent)
chain: B2 chain
partner: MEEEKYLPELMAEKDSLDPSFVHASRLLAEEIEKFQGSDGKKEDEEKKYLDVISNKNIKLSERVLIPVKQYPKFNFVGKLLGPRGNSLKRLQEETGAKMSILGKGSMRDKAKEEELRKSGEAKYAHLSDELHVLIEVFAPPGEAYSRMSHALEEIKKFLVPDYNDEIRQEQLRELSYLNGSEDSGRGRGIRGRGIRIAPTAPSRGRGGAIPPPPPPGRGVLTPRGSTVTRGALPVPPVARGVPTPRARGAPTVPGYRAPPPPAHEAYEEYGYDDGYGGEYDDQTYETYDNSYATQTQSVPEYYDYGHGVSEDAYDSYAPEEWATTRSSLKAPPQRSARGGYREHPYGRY
B8: Myozenin-2 (Homo sapiens), Q9NPC6 (parent)
chain: MLSHNTMMKQRKQQATAIMKEVHGNDVDGMDLGKKVSIPRDIMLEELSHLSNRGARLFKMRQRRSDKYTFENFQYQSRAQINHSIAMQNGKVDGSNLEGGSQQAPLTPPNTPDPRSPPNPDNIAPGYSGPLKEIPPEKFNTTAVPKYYQSPWEQAISNDPELLEALYPKLFKPEGKAELPDYRSFNRVATPFGGFEKASRMVKFKVPDFELLLLTDPRFMSFVNPLSGRRSFNRTPKGWISENIPIVITTEPTDDTTVPESEDL
B9: Neurogenin-3 (Homo sapiens), Q9Y4Z2 (parent)
chain: MTPQPSGAPTVQVTRETERSFPRASEDEVTCPTSAPPSPTRTRGNCAEAEEGGCRGAPRKLRARRGGRSRPKSELALSKQRRSRRKKANDRERNRMHNLNSALDALRGVLPTFPDDAKLTKIETLRFAHNYIWALTQTLRIADHSLYALEPPAPHCGELGSPGGSPGDWGSLYSPVSQAGSLSPAASLEERPGLLGATFSACLSPGSLAFSDFL
B10: Progranulin (Homo sapiens), P28799 (parent)
chain: MWTLVSWVALTAGLVAGTRCPDGQFCPVACCLDPGGASYSCCRPLLDKWPTTLSRHLGGPCQVDAHCSAGHSCIFTVSGTSSCCPFPEAVACGDGHHCCPRGFHCSADGRSCFQRSGNNSVGAIQCPDSQFECPDFSTCCVMVDGSWGCCPMPQASCCEDRVHCCPHGAFCDLVHTRCITPTGTHPLAKKLPAQRTNRAVALSSSVMCPDARSRCPDGSTCCELPSGKYGCCPMPNATCCSDHLHCCPQDTVCDLIQSKCLSKENATTDLLTKLPAHTVGDVKCDMEVSCPDGYTCCRLQSGAWGCCPFTQAVCCEDHIHCCPAGFTCDTQKGTCEQGPHQVPWMEKAPAHLSLPDPQALKRDVPCDNVSSCPSSDTCCQLTSGEWGCCPIPEAVCCSDHQHCCPQGYTCVAEGQCQRGSEIVAGLEKMPARRASLSHPRDIGCDQHTSCPVGQTCCPSLGGSWACCQLPHAVCCEDRQHCCPAGYTCNVKARSCEKEVVSAQPATFLARSPHVGVKDVECGEGHFCHDNQTCCRDNRQGWACCPYRQGVCCADRRHCCPAGFRCAARGTKCLRREAPRWDAPLRDPALRQLL
partner: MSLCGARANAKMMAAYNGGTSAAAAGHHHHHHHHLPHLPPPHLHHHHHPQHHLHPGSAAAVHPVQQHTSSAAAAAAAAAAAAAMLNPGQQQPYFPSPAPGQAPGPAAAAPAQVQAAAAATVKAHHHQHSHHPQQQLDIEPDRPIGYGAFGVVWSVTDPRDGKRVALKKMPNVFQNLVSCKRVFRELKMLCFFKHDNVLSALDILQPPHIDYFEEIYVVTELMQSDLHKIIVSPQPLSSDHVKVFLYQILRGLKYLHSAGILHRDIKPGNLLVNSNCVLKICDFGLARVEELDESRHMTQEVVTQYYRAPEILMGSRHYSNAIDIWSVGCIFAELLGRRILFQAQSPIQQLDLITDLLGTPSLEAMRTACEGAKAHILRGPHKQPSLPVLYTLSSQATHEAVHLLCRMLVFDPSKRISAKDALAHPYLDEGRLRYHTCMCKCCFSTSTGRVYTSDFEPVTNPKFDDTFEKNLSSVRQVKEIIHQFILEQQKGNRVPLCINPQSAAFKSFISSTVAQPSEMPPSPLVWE

Variants of: B1
Settings: with rab34_human RAB34, Q9BZG1

Variant | effect of a mutation on the interaction
S100P | disrupting interaction strength

Variants of: B2
Settings: with tri27_human TRIM27, P14373

Variant | effect of a mutation on the interaction
L107V | with no effect

Variants of: B3
Settings: with coe1_human EBF1, Q9UH73

Variant | effect of a mutation on the interaction
W94R | disrupting interaction strength

Variants of: B4
Settings: with mipo1_human MIPOL1, Q8TD10

Variant | effect of a mutation on the interaction
L107V | with no effect

Variants of: B5
Settings: with nud12_human NUDT12, Q9BQG2
nud12_human NUDT12, Q9BQG2, sequence (Q9BQG2 whole entry): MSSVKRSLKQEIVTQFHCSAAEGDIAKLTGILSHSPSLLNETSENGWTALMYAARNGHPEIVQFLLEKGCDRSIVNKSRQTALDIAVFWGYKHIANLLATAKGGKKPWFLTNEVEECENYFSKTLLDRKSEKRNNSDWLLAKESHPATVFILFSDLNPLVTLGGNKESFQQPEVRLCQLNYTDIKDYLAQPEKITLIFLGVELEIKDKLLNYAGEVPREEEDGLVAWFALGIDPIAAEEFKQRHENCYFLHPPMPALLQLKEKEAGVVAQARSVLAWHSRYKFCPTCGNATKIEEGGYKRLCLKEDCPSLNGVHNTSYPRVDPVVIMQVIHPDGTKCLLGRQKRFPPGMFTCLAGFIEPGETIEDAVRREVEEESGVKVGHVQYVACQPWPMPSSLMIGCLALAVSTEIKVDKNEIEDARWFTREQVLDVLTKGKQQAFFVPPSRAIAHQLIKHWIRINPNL

Variant | effect of a mutation on the interaction
I443V | with no effect

Variants of: B6
Settings: with exoc5_human EXOC5, O00471
exoc5_human EXOC5, O00471, sequence (O00471 whole entry): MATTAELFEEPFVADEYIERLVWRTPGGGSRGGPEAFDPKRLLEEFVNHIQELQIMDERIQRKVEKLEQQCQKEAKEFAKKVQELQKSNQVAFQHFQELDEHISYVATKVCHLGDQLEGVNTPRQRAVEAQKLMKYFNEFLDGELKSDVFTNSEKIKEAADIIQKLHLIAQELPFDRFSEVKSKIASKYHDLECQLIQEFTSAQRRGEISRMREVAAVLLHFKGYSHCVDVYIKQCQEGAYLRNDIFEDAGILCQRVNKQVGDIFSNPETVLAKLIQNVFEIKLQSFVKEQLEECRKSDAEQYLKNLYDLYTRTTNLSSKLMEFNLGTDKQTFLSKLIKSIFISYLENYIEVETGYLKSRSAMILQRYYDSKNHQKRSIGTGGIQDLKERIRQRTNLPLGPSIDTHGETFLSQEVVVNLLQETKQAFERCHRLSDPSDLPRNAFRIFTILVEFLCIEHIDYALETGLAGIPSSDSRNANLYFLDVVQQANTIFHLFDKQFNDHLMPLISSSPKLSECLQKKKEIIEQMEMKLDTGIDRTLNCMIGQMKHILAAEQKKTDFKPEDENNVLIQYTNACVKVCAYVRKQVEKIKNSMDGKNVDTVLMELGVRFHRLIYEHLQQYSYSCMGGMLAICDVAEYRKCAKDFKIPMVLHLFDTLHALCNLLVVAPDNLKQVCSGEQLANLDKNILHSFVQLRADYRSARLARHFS

Variant | effect of a mutation on the interaction
R242Q | with no effect

Variants of: B6
Settings: with actn1_human ACTN1, P12814
Target sequence in this assay (P12814 whole entry): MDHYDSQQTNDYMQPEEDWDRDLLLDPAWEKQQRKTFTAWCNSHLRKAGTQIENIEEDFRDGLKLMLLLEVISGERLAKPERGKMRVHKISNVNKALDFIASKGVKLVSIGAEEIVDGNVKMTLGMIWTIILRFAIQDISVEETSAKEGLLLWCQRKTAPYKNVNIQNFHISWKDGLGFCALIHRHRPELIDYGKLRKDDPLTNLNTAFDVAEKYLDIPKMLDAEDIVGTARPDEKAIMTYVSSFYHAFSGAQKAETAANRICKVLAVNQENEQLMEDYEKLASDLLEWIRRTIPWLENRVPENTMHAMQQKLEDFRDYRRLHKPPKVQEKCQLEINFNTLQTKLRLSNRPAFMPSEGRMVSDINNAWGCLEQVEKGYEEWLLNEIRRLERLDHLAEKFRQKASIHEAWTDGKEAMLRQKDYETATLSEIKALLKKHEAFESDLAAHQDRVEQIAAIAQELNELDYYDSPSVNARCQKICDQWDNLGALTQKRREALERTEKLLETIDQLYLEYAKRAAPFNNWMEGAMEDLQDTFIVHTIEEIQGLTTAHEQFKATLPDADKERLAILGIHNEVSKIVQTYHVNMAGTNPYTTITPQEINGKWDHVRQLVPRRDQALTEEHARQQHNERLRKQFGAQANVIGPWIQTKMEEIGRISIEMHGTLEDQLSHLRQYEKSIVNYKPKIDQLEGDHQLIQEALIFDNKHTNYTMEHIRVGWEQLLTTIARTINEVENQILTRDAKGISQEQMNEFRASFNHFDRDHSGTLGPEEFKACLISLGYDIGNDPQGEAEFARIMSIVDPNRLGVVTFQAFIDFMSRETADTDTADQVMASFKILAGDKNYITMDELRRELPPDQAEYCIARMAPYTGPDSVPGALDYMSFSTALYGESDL

Variant | effect of a mutation on the interaction
R242Q | with no effect

Variants of: B7
Settings: with khdr2_human KHDRBS2, Q5VWX1

Variant | effect of a mutation on the interaction
L107V | with no effect

Variants of: B8
Settings: with actn2_human ACTN2, P35609
actn2_human ACTN2, P35609, sequence (P35609 whole entry): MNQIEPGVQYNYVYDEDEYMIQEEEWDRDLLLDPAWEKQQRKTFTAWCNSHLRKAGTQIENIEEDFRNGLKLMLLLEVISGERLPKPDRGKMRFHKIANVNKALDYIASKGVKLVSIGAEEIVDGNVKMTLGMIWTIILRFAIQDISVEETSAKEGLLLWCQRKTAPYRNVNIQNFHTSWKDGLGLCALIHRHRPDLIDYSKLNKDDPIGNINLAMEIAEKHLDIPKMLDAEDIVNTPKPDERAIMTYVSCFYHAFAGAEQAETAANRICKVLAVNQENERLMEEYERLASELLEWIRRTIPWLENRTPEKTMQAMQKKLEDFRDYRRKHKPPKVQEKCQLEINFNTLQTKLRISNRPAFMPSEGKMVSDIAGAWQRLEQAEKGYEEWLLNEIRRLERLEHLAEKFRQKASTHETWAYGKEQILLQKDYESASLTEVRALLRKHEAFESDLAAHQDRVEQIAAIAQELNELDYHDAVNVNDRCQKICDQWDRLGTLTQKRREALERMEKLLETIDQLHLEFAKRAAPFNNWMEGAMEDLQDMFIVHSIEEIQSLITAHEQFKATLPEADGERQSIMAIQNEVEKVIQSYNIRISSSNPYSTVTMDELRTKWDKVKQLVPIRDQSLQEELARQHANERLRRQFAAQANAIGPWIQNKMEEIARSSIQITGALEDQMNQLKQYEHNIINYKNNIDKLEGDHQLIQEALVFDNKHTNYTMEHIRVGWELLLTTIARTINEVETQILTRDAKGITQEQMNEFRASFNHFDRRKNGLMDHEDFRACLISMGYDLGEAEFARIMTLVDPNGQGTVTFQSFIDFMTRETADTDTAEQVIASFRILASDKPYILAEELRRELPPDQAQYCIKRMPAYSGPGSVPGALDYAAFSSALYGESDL

Variant | effect of a mutation on the interaction
Q10P | with no effect
S48P | with no effect
I246M | with no effect

Variants of: B8
Settings: with actn1_human ACTN1, P12814
Target sequence in this assay (P12814 whole entry): as the sequence (P12814 whole entry) above

Variant | effect of a mutation on the interaction
Q10P | with no effect
S48P | with no effect
I246M | with no effect

Variants of: B8
Settings: with actn4_human ACTN4, O43707
actn4_human ACTN4, O43707, sequence (O43707 whole entry): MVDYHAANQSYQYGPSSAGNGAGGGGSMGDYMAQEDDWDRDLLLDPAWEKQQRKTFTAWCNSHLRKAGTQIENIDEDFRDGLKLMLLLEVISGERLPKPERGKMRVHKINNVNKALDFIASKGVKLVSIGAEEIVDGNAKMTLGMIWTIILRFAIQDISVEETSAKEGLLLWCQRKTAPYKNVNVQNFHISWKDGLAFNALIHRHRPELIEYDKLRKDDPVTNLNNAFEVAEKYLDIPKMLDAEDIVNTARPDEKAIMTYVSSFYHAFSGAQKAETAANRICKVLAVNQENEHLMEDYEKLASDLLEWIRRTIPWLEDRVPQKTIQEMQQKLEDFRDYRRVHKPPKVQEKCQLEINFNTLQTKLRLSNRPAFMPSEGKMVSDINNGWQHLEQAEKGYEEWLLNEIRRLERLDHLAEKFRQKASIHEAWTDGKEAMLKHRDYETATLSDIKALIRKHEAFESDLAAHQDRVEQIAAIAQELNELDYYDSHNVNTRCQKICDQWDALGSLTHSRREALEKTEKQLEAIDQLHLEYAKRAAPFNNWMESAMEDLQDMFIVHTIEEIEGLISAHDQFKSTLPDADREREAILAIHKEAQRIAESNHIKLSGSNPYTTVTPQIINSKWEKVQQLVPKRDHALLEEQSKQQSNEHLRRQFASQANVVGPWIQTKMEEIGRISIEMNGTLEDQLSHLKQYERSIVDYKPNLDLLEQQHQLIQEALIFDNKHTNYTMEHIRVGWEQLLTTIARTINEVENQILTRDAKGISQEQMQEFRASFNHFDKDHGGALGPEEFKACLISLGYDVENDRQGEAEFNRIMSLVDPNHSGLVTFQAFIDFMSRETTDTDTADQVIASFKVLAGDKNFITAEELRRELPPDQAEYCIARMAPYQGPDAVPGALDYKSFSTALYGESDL

Variant | effect of a mutation on the interaction
Q10P | with no effect
S48P | with no effect
I246M | with no effect

Variants of: B9
Settings: with TCF12, Q99081-3
TCF12, Q99081-3, sequence (Q99081 other isoform, or with tags, fused parts or gaps): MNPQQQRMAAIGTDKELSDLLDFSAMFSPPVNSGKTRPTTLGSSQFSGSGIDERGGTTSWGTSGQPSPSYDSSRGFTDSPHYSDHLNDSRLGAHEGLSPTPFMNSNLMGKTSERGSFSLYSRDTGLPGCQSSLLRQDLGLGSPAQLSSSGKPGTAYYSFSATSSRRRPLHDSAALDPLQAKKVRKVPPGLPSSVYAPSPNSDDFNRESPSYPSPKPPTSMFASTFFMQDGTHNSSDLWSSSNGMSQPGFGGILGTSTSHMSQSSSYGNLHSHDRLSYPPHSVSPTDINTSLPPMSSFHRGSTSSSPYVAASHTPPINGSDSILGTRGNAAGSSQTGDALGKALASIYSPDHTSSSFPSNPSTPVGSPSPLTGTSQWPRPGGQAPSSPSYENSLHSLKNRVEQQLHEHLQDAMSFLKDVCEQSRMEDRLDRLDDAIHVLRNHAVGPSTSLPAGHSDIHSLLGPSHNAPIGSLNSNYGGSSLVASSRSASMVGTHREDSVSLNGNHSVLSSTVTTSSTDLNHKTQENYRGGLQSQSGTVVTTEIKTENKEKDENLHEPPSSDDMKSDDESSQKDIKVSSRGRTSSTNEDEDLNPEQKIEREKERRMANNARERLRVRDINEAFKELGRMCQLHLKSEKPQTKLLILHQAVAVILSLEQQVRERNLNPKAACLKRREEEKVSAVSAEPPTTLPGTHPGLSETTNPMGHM

Variant | effect of a mutation on the interaction
F199S | disrupting interaction strength
G167R | disrupting interaction strength

Variants of: B10
Settings: with nlk_human NLK

Variant | effect of a mutation on the interaction
A9D | disrupting interaction strength
